In patent US20250345423A1 (IMUNEXUS THERAPEUTICS, published 2025):

T1: human recombinant Sclerostin (rhSOST, R&D systems 1406-ST-025/CF) (human, UniProt Q9BQB4 24-213)
T1 sequence (looked up): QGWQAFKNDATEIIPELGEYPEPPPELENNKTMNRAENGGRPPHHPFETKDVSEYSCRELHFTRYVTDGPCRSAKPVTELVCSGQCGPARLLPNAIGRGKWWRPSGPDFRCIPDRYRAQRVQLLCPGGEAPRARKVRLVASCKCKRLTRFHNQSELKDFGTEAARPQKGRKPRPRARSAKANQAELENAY

T2: human B7-1 (CD80) protein (Acro Biosystems, B71-H5259) (human, UniProt P33681 35-242)
T2 sequence (looked up): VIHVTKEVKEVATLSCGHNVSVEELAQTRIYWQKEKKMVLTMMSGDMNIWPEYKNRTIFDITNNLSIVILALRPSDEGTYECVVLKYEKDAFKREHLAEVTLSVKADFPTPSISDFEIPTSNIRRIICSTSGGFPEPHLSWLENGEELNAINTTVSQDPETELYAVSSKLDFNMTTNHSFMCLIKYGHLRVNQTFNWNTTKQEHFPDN

T3: CD80 expressed on Raji cells (UniProt P33681 35-288)
T3 construct: whole, on cells; also called Raji cells expressing CD80; B7-1 on Raji cells
T3 sequence (looked up): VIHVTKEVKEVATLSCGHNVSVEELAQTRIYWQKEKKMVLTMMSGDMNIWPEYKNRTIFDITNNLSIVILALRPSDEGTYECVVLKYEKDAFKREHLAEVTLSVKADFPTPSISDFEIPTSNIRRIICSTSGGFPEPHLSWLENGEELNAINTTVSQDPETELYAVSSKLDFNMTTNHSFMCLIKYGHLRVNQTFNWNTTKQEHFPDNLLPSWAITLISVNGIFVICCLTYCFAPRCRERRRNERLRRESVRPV


Legend:
[1] = biological target: T1, human recombinant Sclerostin (rhSOST, …); experiment: in-cell ELISA on transfected HEK293 cells, anti-SOST primary antibody, versus mock transfection
Experimental: The remainder of the protocol was identical for both cell types. One day before transfection, cells were plated on 96-well microtiter plates that had previously been coated with Poly-D-Lysine (PDL, Gibco, Cat. No. A38904-01) according to the manufacturer's instructions. The ideal cell density for subsequent transfection and in-cell ELISA was empirically determined to be 10,000 cells per well at time of seeding. The day after plating, cells were transfected using the Lipofectamine 3000 transfection kit (Invitrogen, Cat. No. L3000-008). The ideal amount of DNA and Lipofectamine per well was empirically determined to be 100 ng (HEK cells) or 200 ng (CHO cells) of DNA and 0.15 μl of Lipofectamine 3000. Transfections were performed according to the manufacturer's instructions.
All in-cell ELISA experiments were carried out in 96-well microtiter plates. […]

[2] = biological target: T2, human B7-1 (CD80) protein (Acro …); experiment: in-cell ELISA on transfected bMSCs, anti-CD80 primary antibody, versus control transfection
Experimental: Cells were plated on a 96-well plate at a density of 10,000 cells per well. The in-cell ELISA was performed the following day.
All in-cell ELISA experiments were carried out in 96-well microtiter plates. For assays in which the primary antibody was directed against the ligand of the CTLA-4 binding domain, the supernatant of cells expressing the CTLA-4 BD was aspirated, replaced with medium containing the ligand (rhSOST (R&D systems 1406-ST-025/CF) or B7-1/CD80 protein (Acro Biosystems, B71-H5259) at varying concentrations, and incubated for 1 h at RT. For assays in which binding of B-lymphocytes to cells expressing the CTLA-4 binding domain was to be assessed, cells from a lymphoblast-like cell line (Raji cells) were used. The required number of Raji cells (100,000 cells for each assay well) were centrifuged and resuspended in an appropriate volume of MSCBM (100 μl/100,000 cells), and the cell suspension was added to the wells containing bMSCs. Plates were incubated for 1 h at RT before the wells were very carefully washed 3× with D-PBS. In-cell ELISA assays were carried out two days after transfection with CTLA-4 BD plasmid DNA. […]

[3] = biological target: T3, CD80 expressed on Raji cells; experiment: cell-to-cell binding: Raji cells on transfected bMSCs (summary of Example 2)
Experimental: The required number of Raji cells (100,000 cells for each assay well) were centrifuged and resuspended in an appropriate volume of MSCBM (100 μl/100,000 cells), and the cell suspension was added to the wells containing bMSCs. Plates were incubated for 1 h at RT before the wells were very carefully washed 3× with D-PBS. In-cell ELISA assays were carried out two days after transfection with CTLA-4 BD plasmid DNA. The cell supernatant was aspirated, cells were washed 3× with 300 μl D-PBS (137 mM NaCl, 8.1 mM Na₂HPO₄, 2.68 mM KCl, 1.47 mM KH₂PO₄, 0.9 mM CaCl₂), 0.5 mM MgCl₂), and then fixed by adding 50 μl of a formaldehyde solution (4% in PBS, for example Santa Cruz Biotechnology, Cat. No. SANTS-281692). After 15-20 minutes of incubation at RT, the solution was aspirated and cells were washed 3× with 300 μl D-PBS-T (D-PBS containing 0.05% (w/V) Tween-20). Wells were blocked by incubating with 300 μl of 5% skim milk in D-PBS-T for 1 h at RT. The blocking buffer was aspirated and wells were washed with 3×300 μl D-PBS-T before adding 50 μl of the primary antibody diluted in D-PBS-T (see Table 1 for antibodies and their respective dilutions). […] After 5-15 minutes the reaction was stopped by adding 100 μl 1 M HCl, and absorbance at a wavelength of 450 nm was measured using a micro plate reader. […]

Row | binding result [1] | binding result [2] | binding result [3] | Binder
1 | binds |  |  | BD_SOST (CTLA-4 binding domain directed against human sclerostin), displayed on the cell surface from the display vector (designed binder) KAMHVAQPAVVLASSRGIASFVCEYTVSWVDMEVRVTVLRQADSQVTEVCAATYWNGRWLTFLDDSICTGTSSGNQVNLTIQGLRAMDTGLYICKVQLDPSWGYYWQGYEGIGNGTQIYVIDPEPSPDSNAGGGGSGGGGSGGGGSAEQKLISEEDLNAVGQDTQEVIVVPHSLPFKVVVISAILALVVLTIISLIILIMLWQKKPR
2 |  | binds | binds | BD_B7 (CTLA-4 binding domain directed against B7.1 (CD80)), displayed on the cell surface from the display vector (designed binder, also called CTLA-4 BD directed against B7-1) KAMHVAQPAVVLASSRGIASFVCEYASPGKYTEVRVTVLRQADSQVTEVCAATYMTGNELTFLDDSICTGTSSGNQVNLTIQGLRAMDTGLYICKVELMYPPPYYLGIGNGTQIYVIDPEPSPDSNAGGGGSGGGGSGGGGSAEQKLISEEDLNAVGQDTQEVIVVPHSLPFKVVVISAILALVVLTIISLIILIMLWQKKPR
